Assay results published in paper doi:10.1101/2022.11.07.515396, “Functional and structural asymmetry suggest a unifying principle for catalysis in integral membrane-bound pyrophosphatases” (bioRxiv, 2022).

Legend:
[1] = target: the molecule itself; assay: crystal structure; PaPPase in DM with 2 mM IDP, vapour diffusion, 30-33% v/v PEG 400, 0.1 M MES pH 6.5, 0.05 M LiSO4, 0.05 M NaCl, 20 °C; space group P21; eight datasets combined; molecular replacement with PDB 5LZQ
[2] = target: the molecule itself; assay: crystal structure; TmPPase in OGNG with 0.4 mM K4PPi, vapour diffusion, 24-26% v/v PEG 400, 50-60 mM Tris-HCl pH 8.5, 2-3 mM MgCl2, 175 mM KCl, 2 mM DTT, 20 °C; time-resolved cryo-trapping after soaking in Na+ trigger solution (0-3600 seconds); molecular replacement with PDB 4AV3

B1: K+-independent H+-pumping membrane-bound pyrophosphatase from Pyrobaculum aerophilum (PaPPase), wild type (enzyme, UniProt Q8ZWI8 1-721, looked up)
chain: MNMISYALLGVILGISGVIYAVYLAVWVLRQDPGNEKMRFISQAIATGARAYLFRQYRTLAVLLVILAVLILVAIDMPRRTFGLTALAFIVGALGSMLAGYLGMYVTTRSASRVAQAAATGGMGKALLVSWRAGAVMGLSLASIALLLISGFYLVFRSVLPDDWAVPLVALGFGASLVTLFMRVGGGIYTKAADLGADLVGKVEAGIPEDDPRNPGVIADNVGDNVGDVAGMAADVYESYIVTVTAAIFLAAILGLPTQFIEAIILFAALALVATFAGVNLLKTTGVKHPLSSISLAIYATIGLSVVLFFIGAFTLGLDSTKALALAATTSLGAVIAPLIVKITDYYTSYNYGPVRKIAEQAKISPATVIITGYGVGLMSAIPVIAVIVAVLGISYMIGYYTVPVSGFGELSKYLAGIFGTAMASVGLLVVAGIIITADSYGPVSDNAGGVVEMAGLPDEVREITDVLDSVGNTTKATTKGYAIASAALAALVLFIALIFEIVYSASKILGKGIVDMISESLSGLQLINANVLIGAFLGVALVYFFSSRTLEAVGRTAMEIVEEIRRQFREKPGILEWKEQPDYARVVDIATRRALGEFLIPGLAAIVLPLITGLLLGWNALAGLIMGAIVAGVPRALLMANAGGAWDNAKKYIEIQGLKKTEMHKAAVIGDTVGDPMKDTVGPSLNPLIKVLNTLSVVFTYVIVSTNIALGIWPSGLLPF
notes: also called PaPPase:Mg5IDP; K+-independent H+-PPase; source: S. cerevisiae BJ1991, purified (hot-solve in DDM, nickel-NTA, protein in DM for crystals)
stoichiometry N [1]: 2

B2: K+-dependent Na+-pumping membrane-bound pyrophosphatase from Thermotoga maritima (TmPPase), wild type (enzyme, UniProt Q9S5X0 1-726, looked up)
chain: MYVAALFFLIPLVALGFAAANFAAVVRKPEGTERMKEISSYIRSGADSFLAHETKAIFKVAIVIAILLMIFTTWQTGVAFLLGAVMSASAGIVGMKMATRANVRVAEAARTTKKIGPALKVAYQGGSVMGLSVGGFALLGLVLVYLIFGKWMGQVDNLNIYTNWLGINFVPFAMTVSGYALGCSIIAMFDRVGGGVYTKAADMAADLVGKTELNLPEDDPRNPATIADNVGDNVGDVAGLGADLLESFVGAIVSSIILASYMFPIYVQKIGENLVHQVPKETIQALISYPIFFALVGLGCSMLGILYVIVKKPSDNPQRELNISLWTSALLTVVLTAFLTYFYLKDLQGLDVVGFRFGAISPWFSAIIGIFSGILIGFWAEYYTSYRYKPTQFLSKSSIEGTGMVISNGLSLGMKSVFPPTLTLVLGILFADYFAGLYGVAIAALGMLSFVATSVSVDSYGPIADNAGGISEMCELDPEVRKITDHLDAVGNTTAAIGKGFAIGSAIFAALSLFASYMFSQISPSDIGKPPSLVLLLNMLDARVIAGALLGAAITYYFSGYLISAVTKAAMKMVDEIRRQAREIPGLLEGKAKPDYNRCIEITSDNALKQMGYPAFIAILTPLVTGFLLGAEFVGGVLIGTVLSGAMLAILTANSGGAWDNAKKYLEAGNLEGYGKGSEPHKALVIGDTVGDPLKDTVGPSLDILIKIMSVVSVIAVSIFKHVHLF
notes: also called K+-dependent Na+-PPase; TmPPase:Mg2; source: S. cerevisiae BJ1991, purified (hot-solve, nickel-NTA, in OGNG)
stoichiometry N [2]: 2
